In the nanobody polyreactivity screen of Harvey et al. (2022):

Assay: yeast display, Sf9 membrane polyspecificity reagent, FACS + sequencing; frameworks hold sequencing errors
Procedure, shortened: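 Synthetic nanobody libraries on Saccharomyces cerevisiae BJ5465 were galactose-induced for 36–48 hours, stained 1 hour at 4 °C with 10% biotinylated, detergent-solubilized Sf9 membrane reagent and enriched on streptavidin microbeads. FACS then separated cells into low and high (top ~1%) gates by anti-HA (expression) and streptavidin (reagent binding) fluorescence. Genes were colony-PCR amplified, MiSeq 2 × 250 sequenced and CDR-length filtered. A clone's polyreactivity label is that of its gate of origin.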

Sequence	polyreactivity (PSR sort gate)
QVQLVESGGGLVQAGGSLRLSCAASGSIFSSYVMGWYRQAPGKERELVAAITFSGATTYYADSVKGRFTISRDNAKNTVYLQMNSLKPEDTAVYYCATKAYTTGRYYWGQGTQVTVSS	high polyreactivity
QVQLVESGGGLVQAGGSLRLSCAASGSIFSTNDMGWYRQAPGKERELVAAISVSGGSTYYADSVKGRFTISRDNAKNTVYLQMNSLKPEDTAVYYCNADYTRGTMYYWGQGTQVTGSS	low polyreactivity
QVQLVESGGGLVQAGGSLRLSCAASGSIFSTYAMGWYRQAPGKERELVAAINRGTSTNYADSVKGRFTISRDNAKNTVYLQMNSLKPEDTAVYYCAAYYRGRYGPRRSEYWGQGTQVTVSS	high polyreactivity
QVQLVESGGGLVQAGGSLRLSCAASGSIFSTYAMGWYRQAPGKERELVAAISTRGGRTYYADSVKGRFTISRDNAKNTVYLQMNSLKPEDTAVYYCAAKRGKTYQRFDYWGQGTQVTVSS	high polyreactivity
QVQLVESGGGLVQAGGSLRLSCAASGSIFSTYARGWYRQAPGKERELVATITSGGNTNYADSVKGRYTISRDNAKNTVYLQMNSLKPEDTAVDYSNKEWDGDGYTDDWDYDYWGQGTQVTVSS	low polyreactivity
QVQLVESGGGLVQAGGSLRLSCAASGSIFSTYTMGWYRQAPGKERELVATIRLRGGSTYYADSVKGRFTISRDNAKNTVYLQMNSLKPEDTAVYYCNKAYRYYQYGYWGQGTQVTVSS	high polyreactivity
QVQLVESGGGLVQAGGSLRLSCAASGSIFSVNAMGWYRQAPGKERELVATITAGGGSTNYADSVKVRFTISRDNAKNTVYLQMNSLKPEDTAVYYCAADYWYVSWYDYWGQGTQVTVSS	low polyreactivity
QVQLVESGGGLVQAGGSLRLSCAASGSIFSVYAMGWYRQAPGKERELVAAIDFSGGSTYYADSVKGRFTISRDNPKNTVYLQMNSLKPEDTAVYYCAAEYLPYPEYEYDYWGQGTQVTVSS	low polyreactivity
QVQLVESGGGLVQAGGSLRLSCAASGSIFSVYAMGWYRQAPGKERELVAAISTRGGSTYYADSVKGRFTISRDNAKNTVYLQMNSLKPEDTAVYYCAKRWPQYTDYKPMYYWGLGTQVTVSS	high polyreactivity
QVQLVESGGGLVQAGGSLRLSCAASGSIFSVYARGWSRQAPGKERELVAAITSGTSTYADSVKGRFTISRDNAKNTVYLQMNSLKPEDTAVYACAAESGSPGYYYWGQGTQVTVSS	low polyreactivity
QVQLVESGGGLVQAGGSLRLSCAASGSIFSWYAMGWYRQAPGKERELVAAISNSGGSTYYADSVKGRFTISRDNAKNTVYLQMNSLKPEDTAVYYCAAYDGDTYDWGQGTQVTVSS	high polyreactivity
QVQLVESGGGLVQAGGSLRLSCAASGSIFSYKTMGWYRQAPGKERELVAAISSDGSTYYADSVKGRFTISRDNAKNTVYLQMNSLKPEDTAVYYCAATYYPYEHYYWGQGTQVTLSS	low polyreactivity
QVQLVESGGGLVQAGGSLRLSCAASGSIFSYNAMGWYRQAPGKERELVAAIDWSGGSTYYADSVKGRFTISRDNAKNTVYLQMNSLKPVDTAVYYCNAVGVFYYSYHYHQYDYWGQGTQVTVSS	low polyreactivity
QVQLVESGGGLVQAGGSLRLSCAASGSIFSYNAMGWYRQATGKERELVARITRGGDGTYYADSVKGRFTISRDNAKNTVYLQMNSLKPEDTAVYYCAATPYWYHLRVEGGYWGQGTQVTVSS	low polyreactivity
QVQLVESGGGLVQAGGSLRLSCAASGSIFSYYAMGWNRQAHGKERELVASITRGGSTYYADSVKGRFTISRDNAKNTVYLQMNSLKPEDSAVYYCAAAARYYSRYDFPNNYWGQVTQVTVSS	low polyreactivity
QVQLVESGGGLVQAGGSLRLSCAASGSIFSYYAMGWYRQAPGKERELVAAITSGGATTYYADSVKGRFTISRDNAKNTVYLQMNSLKPEDTAVYYCAAGYYVYYRWWELDYWGQGTQVTVSS	low polyreactivity

Sequence	polyreactivity (PSR sort gate)
QVQLVESGGGLVQAGGSLRLSCAASGSIFSYYAMGWYRQAPGKERELVAAITTGGGTYYADSVKGRFTISRDNAKNTVYLQMNSLKPEDTAVYYCAKDGYPDQDVQVFNDSDYWGQGTQVTVSS	low polyreactivity
QVQLVESGGGLVQAGGSLRLSCAASGSIFSYYAMGWYRQAPGKERELVATISSGGSTNYADSVKGRFTISRDNAKNTVYLQMNSLKPEDTAVYYCAATIGHNGFDYWGQGTQVTVSS	low polyreactivity
QVQLVESGGGLVQAGGSLRLSCAASGSIFSYYDMGWYRQAPGKERELVAAITTGGSTNYADSVKGRFTISRDNAKNTVYLQMNSLKPEDTAVYYCNAGRWWSRGYGYWGQVTQVTVSS	high polyreactivity
QVQLVESGGGLVQAGGSLRLSCAASGSIFSYYVMGWYRQAPGKERELVAAISYSGGRTYYADSVKGRFTISRDNAKNTVYLQMNSLKQEDTAVYYCARRSYVYPYGYDYWGQGTQVTVSS	high polyreactivity
QVQLVESGGGLVQAGGSLRLSCAASGSIFSYYVMGWYRQAPGKERELVAAITSSGGSTYYADSVKGRFTISRDNAKNTVYLQMNSLKPEDTAVYYCAAYQRSQYRSYPGYEYWGQGTQVTVSS	high polyreactivity
QVQLVESGGGLVQAGGSLRLSCAASGSIFTDNAMGWYRQAPGKERELVAAITGRGGNTYYADSVKGRFPISRDIAKNPVYLQMNSLKPEDTAVYYCAARIFRTRKPLGYWGQGTQVTVSS	high polyreactivity
QVQLVESGGGLVQAGGSLRLSCAASGSIFTDNSMGWYRQAPGKERELVAAIDSVGSTYYADSVKGRFTISRDNAKNTVYLQMNSLKPEDTAVYYCAADLYFPYESYYWGQGTQVTVSS	low polyreactivity
QVQLVESGGGLVQAGGSLRLSCAASGSIFTDYTMGWSRQAPGKERELVAAISWIGDSTDYADSVKGRFTISRDNAKNTVYLQMNSLKPEDTAVYYCAKSRAGRYNDYDYWGQGTQVTVSS	low polyreactivity
QVQLVESGGGLVQAGGSLRLSCAASGSIFTENAMGWYRQAPGKERELVAAIRWDDGNTYYADSVKGRFTISRDNAKNTVYLQMNSLKTEDTAVYYCNADKWSSTDDWLYDYWGQGTQVTVSS	low polyreactivity
QVQLVESGGGLVQAGGSLRLSCAASGSIFTFYAMGWYRQAPGKERELVAAISSGGDTYYADSVKGRFTISRDNAKNTVYLQMNSLKAEDTAVYYCAADWRGSYLYGYYYWGQGTQVTVSS	low polyreactivity
QVQLVESGGGLVQAGGSLRLSCAASGSIFTFYAMGWYRQAPGKERELVAAITTIGGRTYYADSVKGRFTISRDNAKNTVYLQMNSLKPEDTAVYYCAAGYRAWEPYGHYGYWGQGTQVTVSS	high polyreactivity
QVQLVESGGGLVQAGGSLRLSCAASGSIFTFYAMGWYRQAPGKERELVARITNVGNTNYADSVKGRFTISRDNAKNTVYLQMNSLKPEDTAVYYCAARWYWGWTRGDYWGQGTQVTVSS	high polyreactivity
QVQLVESGGGLVQAGGSLRLSCAASGSIFTFYAMGWYRQAPGKEREVVARITNGGNTNYADSGKGRFTISRDNAKNTVYLQMNSLKPEDTEVYYCAARWYWGWTRGDYWGQRTQVTVSS	high polyreactivity
QVQLVESGGGLVQAGGSLRLSCAASGSIFTGNAMGWYRPAPGKERELVAAISSSGGSTYYADSVKGRFTISRDNSKNTVYLQMNSLKPEDTAVYYSAAYNYFLQYDYWGHGTQVTVSS	low polyreactivity
QVQLVESGGGLVQAGGSLRLSCAASGSIFTGNAMGWYRQAPGKERELVAAITQRGGRTYYADSVKGRFTISRDNAKNTVYLQMNSLKPKIPAVYYCNAKWTTLFDYWGQGTQVTVSS	high polyreactivity
QVQLVESGGGLVQAGGSLRLSCAASGSIFTGYAMGWYRQAPGKERELVAAISASGTRTYYADSVKGRFTISRDNAKNTVYLQMNSLKPEDTAVYYCARDSLQVFYPYASDDYWGQGTQVTVSS	low polyreactivity
